Test results reported in the supplement of paper PMC9876800.

Tested on: peptide library, one residue held at a place counted from the S/T acceptor
Assay: relative phosphorylation of the sub-library (ratio to the mean residue at this position); human; higher = residue favoured
Procedure, shortened: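 Purified recombinant kinases, either human or orthologue constructs, were incubated in 384-well plates with biotinylated degenerate peptide sub-libraries. Each sub-library fixed one residue at one position around a central Ser/Thr. Peptides at 50 μM and 50 μM ATP spiked with γ-32P-ATP were used for 90 min under kinase-specific conditions, and spots on streptavidin membranes were phosphorimaged and quantified by densitometry. Relative sub-library phosphorylation is expressed as a ratio to the mean residue at that position.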

STK10, construct: aa18-317, sequence (O94804 18-317, looked up): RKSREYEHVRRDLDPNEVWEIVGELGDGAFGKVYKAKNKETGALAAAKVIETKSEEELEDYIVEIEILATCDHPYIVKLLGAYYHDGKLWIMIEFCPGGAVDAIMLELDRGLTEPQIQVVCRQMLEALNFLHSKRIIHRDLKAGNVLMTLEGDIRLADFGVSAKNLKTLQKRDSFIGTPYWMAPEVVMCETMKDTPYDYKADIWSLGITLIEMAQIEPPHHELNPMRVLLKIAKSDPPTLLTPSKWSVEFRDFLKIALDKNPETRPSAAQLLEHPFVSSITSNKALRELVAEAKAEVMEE
SIK3, construct: aa1-307, sequence (Q9Y2K2 1-307, looked up): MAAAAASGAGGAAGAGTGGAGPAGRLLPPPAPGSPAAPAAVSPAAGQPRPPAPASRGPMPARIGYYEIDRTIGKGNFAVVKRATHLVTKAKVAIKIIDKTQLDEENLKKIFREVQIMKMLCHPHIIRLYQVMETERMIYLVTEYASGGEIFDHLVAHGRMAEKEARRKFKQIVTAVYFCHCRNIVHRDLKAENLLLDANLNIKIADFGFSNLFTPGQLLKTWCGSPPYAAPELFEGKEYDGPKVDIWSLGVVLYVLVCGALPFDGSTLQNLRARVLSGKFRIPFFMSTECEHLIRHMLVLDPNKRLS
SLK, construct: Full length, sequence (Q9H2G2 whole entry, looked up): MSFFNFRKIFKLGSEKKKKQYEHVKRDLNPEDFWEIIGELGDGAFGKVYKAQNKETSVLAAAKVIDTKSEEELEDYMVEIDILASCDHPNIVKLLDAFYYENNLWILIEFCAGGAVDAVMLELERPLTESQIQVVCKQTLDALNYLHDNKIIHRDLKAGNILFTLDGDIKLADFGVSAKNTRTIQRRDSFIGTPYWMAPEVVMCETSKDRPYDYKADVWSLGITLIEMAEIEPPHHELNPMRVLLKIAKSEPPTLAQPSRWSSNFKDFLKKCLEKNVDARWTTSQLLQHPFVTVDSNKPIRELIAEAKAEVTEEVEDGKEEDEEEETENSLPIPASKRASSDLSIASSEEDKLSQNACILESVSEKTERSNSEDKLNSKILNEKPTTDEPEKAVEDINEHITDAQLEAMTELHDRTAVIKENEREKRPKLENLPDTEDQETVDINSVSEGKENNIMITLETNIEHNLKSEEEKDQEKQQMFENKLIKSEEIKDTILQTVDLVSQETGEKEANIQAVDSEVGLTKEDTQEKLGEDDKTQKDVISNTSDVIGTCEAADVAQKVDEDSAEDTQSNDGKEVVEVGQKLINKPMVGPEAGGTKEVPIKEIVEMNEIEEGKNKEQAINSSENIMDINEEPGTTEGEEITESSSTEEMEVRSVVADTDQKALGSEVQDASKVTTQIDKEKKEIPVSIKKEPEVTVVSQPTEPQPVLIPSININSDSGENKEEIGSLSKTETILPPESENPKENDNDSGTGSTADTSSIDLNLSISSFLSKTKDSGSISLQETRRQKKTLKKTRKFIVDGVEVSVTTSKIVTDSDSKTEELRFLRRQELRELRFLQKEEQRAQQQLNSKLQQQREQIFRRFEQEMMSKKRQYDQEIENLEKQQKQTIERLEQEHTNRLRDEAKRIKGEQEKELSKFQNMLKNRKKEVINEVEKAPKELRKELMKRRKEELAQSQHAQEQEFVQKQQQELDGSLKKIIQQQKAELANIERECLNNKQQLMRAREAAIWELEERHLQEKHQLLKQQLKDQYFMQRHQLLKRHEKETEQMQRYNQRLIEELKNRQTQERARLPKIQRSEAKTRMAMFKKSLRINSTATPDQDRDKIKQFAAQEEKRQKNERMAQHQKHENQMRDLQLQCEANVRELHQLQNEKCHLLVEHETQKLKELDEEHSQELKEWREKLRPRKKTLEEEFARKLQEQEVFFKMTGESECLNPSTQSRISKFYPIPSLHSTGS

SIK3, construct: aa1-307 (from UniProt Q9Y2K2)
relative phosphorylation
Conditions	at +1	at +2	at +3	at +4	at -1	at -2	at -3	at -4	at -5
A fixed	0.723	1.19	0.654	0.581	1.02	1.77	0.786	1.12	1.32
D fixed	0.537	0.686	2.07	0.508	0.631	0.339	0.328	0.773	0.8
E fixed	0.747	0.583	0.643	0.374	0.495	0.272	0.353	0.768	0.692
F fixed	0.727	0.687	0.914	0.724	0.497	1.06	0.698	0.867	1.06
G fixed	0.646	0.775	0.505	0.546	2.72	1.28	0.684	1.36	1.16
H fixed	0.747	1.14	1.36	0.678	0.857	1.3	1.11	1.19	0.856
I fixed	1.12	0.923	0.555	2.59	0.364	0.507	0.399	0.637	0.861
K fixed	0.88	0.578	0.728	0.56	1.77	1.17	2.13	1.21	1.02
L fixed	1.21	0.987	0.824	4.53	0.691	0.364	0.497	0.662	1.58
M fixed	2.13	1.08	0.759	1.55	0.781	0.591	0.649	0.991	1.2
N fixed	1.29	1.4	3.64	0.597	1.25	0.65	0.57	0.895	0.733
P fixed	0.373	1.17	0.359	0.637	1.53	0.538	0.939	1.16	0.954
Q fixed	1.84	0.988	0.853	0.481	1.29	0.526	0.704	0.8	0.725
R fixed	1.1	0.956	0.688	0.459	1.4	1.45	4.8	1.73	1.5
V fixed	1.28	0.926	0.488	1.18	0.463	0.645	0.427	0.645	0.695
W fixed	0.795	1.97	0.851	0.581	0.486	2.92	1.26	1.21	0.973
Y fixed	0.877	0.961	1.1	0.42	0.756	1.62	0.658	0.987	0.868
pThr fixed	0.992	0.79	0.348	0.35	0.294	0.444	0.527	0.647	0.667
pTyr fixed	0.487	0.297	0.335	0.324	0.589	0.442	0.522	0.627	0.782

SLK, construct: Full length (from UniProt Q9H2G2)
relative phosphorylation
Conditions	at +1	at +2	at +3	at +4	at -1	at -2	at -3	at -4	at -5
A fixed	0.368	0.647	0.652	0.778	0.576	0.458	0.681	1.05	1.07
D fixed	0.242	0.669	0.58	1.14	0.484	0.531	0.8	1.09	1.57
E fixed	0.198	0.358	0.515	0.774	0.33	0.306	0.686	1.08	1
F fixed	1.23	0.482	0.699	0.768	0.781	2.5	0.948	0.894	0.915
G fixed	0.428	0.917	1.01	1.04	0.478	0.424	0.641	1.2	1.06
H fixed	0.835	1.38	1.13	1.15	1.16	0.848	1.14	1.04	1.2
I fixed	1.39	0.349	0.454	0.648	0.287	0.263	0.314	0.6	0.552
K fixed	1.24	2.1	2.23	1.47	3.28	1.41	2.4	1.06	1.48
L fixed	2.29	0.478	0.632	0.8	0.881	0.357	0.386	0.706	0.617
M fixed	2.25	0.614	0.61	0.801	0.904	0.568	0.565	0.747	0.691
N fixed	0.877	1.22	1.27	1.04	1.59	0.737	1.11	0.85	1.21
P fixed	0.399	1.22	1.89	1.47	0.756	0.613	1	1.68	0.872
Q fixed	0.818	1.04	0.918	1.22	1.27	0.604	1.01	0.918	0.744
R fixed	1.11	3.74	2.14	1.45	1.68	1.13	1.79	1.11	1.31
V fixed	0.673	0.445	0.514	0.598	0.35	0.306	0.326	0.688	0.716
W fixed	1.49	0.745	0.911	1.04	0.781	0.862	1.95	1.36	1.12
Y fixed	1.16	0.599	0.844	0.81	1.41	5.07	1.26	0.95	0.872
pThr fixed	0.61	1	0.916	0.839	0.431	0.525	0.878	1.28	1.27
pTyr fixed	0.455	0.581	0.811	0.641	0.392	0.921	1.16	1.07	1.03

STK10, construct: aa18-317 (from UniProt O94804)
relative phosphorylation
Conditions	at +1	at +2	at +3	at +4	at -1	at -2	at -3	at -4	at -5
A fixed	0.6	0.853	0.817	0.9	0.811	0.667	0.873	0.975	1.15
D fixed	0.168	0.371	0.456	0.637	0.412	0.51	0.598	0.695	0.905
E fixed	0.167	0.225	0.409	0.563	0.304	0.216	0.598	0.776	0.605
F fixed	1.23	0.634	0.846	0.816	0.911	2.13	1.02	0.85	0.846
G fixed	0.564	1.09	1.09	1.21	0.703	0.543	0.936	1.35	1.28
H fixed	1.06	1.48	1.26	1.04	1.41	1.07	1.25	1.16	1.15
I fixed	1.47	0.48	0.568	0.666	0.539	0.384	0.505	0.718	0.672
K fixed	1.04	2.28	1.92	1.7	1.99	1.86	2.07	1.62	1.81
L fixed	2.1	0.629	0.809	0.876	1.18	0.559	0.612	0.767	0.654
M fixed	1.83	0.729	0.72	0.827	1.12	0.918	0.759	0.858	0.768
N fixed	0.757	1.12	0.961	1.17	1.13	0.879	1.07	0.837	1.15
P fixed	0.321	1.05	1.62	1.48	0.584	0.492	0.85	1.14	1.09
Q fixed	0.763	0.952	0.954	1.17	1.03	0.777	1.02	0.956	0.82
R fixed	1.18	3.13	2.06	1.63	1.96	1.72	2.01	1.58	1.73
V fixed	0.956	0.56	0.613	0.724	0.6	0.485	0.475	0.795	0.814
W fixed	1.49	0.732	0.987	0.896	0.93	0.881	1.24	1.05	0.769
Y fixed	1.3	0.688	0.91	0.699	1.38	2.91	1.11	0.877	0.788
pThr fixed	0.44	0.484	0.586	0.537	0.274	0.358	0.612	0.857	0.871
pTyr fixed	0.362	0.314	0.667	0.476	0.382	0.491	0.938	0.816	0.855
